Measured values taken from publication PMC9482650, “Quantitative fragmentomics allow affinity mapping of interactomes” (Nature Communications, 2022).

T1: RADIL, Q96JH8
T1 sequence (Q96JH8 971-1071, limits assumed, looked up): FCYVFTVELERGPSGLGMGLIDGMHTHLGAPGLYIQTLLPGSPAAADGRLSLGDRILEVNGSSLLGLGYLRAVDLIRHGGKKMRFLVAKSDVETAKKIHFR

T2: TX1BP3, O14907
T2 sequence (O14907 10-122, limits assumed, looked up): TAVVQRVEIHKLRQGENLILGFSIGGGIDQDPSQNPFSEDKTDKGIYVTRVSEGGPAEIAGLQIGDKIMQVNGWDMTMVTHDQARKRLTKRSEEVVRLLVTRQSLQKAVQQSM

T3: HTRA4, P83105
T3 sequence (P83105 378-476, limits assumed, looked up): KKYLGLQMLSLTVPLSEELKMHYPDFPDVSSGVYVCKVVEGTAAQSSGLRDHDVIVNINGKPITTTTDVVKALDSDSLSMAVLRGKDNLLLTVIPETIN

T4: PTPN13_1, Q12923
T4 sequence (Q12923 1088-1188, limits assumed, looked up): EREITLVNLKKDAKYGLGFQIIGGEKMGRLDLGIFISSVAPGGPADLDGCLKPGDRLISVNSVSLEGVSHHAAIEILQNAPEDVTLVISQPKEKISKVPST

T5: PDZD2_2, O15018
T5 sequence (O15018 329-429, limits assumed, looked up): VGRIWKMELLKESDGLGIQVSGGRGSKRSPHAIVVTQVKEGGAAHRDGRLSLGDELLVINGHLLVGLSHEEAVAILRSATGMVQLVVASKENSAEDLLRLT

T6: DFNB31_2, Q9P202
T6 sequence (Q9P202 274-371, limits assumed, looked up): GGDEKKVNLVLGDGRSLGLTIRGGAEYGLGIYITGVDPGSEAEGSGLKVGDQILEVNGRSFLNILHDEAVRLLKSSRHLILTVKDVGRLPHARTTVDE

T7: LIN7C, Q9NUP9
T7 sequence (Q9NUP9 88-185, limits assumed, looked up): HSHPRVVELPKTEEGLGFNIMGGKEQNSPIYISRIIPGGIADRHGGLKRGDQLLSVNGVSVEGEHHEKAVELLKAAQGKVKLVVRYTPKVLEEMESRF

T8: DLG3_3, Q92796
T8 sequence (Q92796 374-475, limits assumed, looked up): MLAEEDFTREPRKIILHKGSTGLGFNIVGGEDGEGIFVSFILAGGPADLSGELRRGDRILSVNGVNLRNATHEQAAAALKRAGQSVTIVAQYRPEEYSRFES

T9: MPP7, Q5T2T1
T9 sequence (Q5T2T1 134-230, limits assumed, looked up): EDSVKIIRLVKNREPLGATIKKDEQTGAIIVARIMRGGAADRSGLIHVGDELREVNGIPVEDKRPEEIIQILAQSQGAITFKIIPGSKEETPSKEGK

T10: DFNB31_3, Q9P202
T10 sequence (Q9P202 811-907, limits assumed, looked up): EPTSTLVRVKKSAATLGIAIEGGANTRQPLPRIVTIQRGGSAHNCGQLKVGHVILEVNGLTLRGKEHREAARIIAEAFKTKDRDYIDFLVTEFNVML

T11: DLG3_2, Q92796
T11 sequence (Q92796 221-321, limits assumed, looked up): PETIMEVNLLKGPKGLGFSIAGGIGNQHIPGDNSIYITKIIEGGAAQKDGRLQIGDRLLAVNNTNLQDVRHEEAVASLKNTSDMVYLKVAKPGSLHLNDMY


How the values were obtained:
Experiment in all cases: holdup assay
Set-up in all cases: key: below the threshold = too weak to quantify, mostly under pKd 3.1 to 4
Settings in all cases: plain residues with an end cap or a label only (N-terminal biotin on a linker: ado-ado)
Inadl_4, Q8NI35 = target: Inadl_4, Q8NI35
Inadl_4, Q8NI35, sequence (Q8NI35 547-651): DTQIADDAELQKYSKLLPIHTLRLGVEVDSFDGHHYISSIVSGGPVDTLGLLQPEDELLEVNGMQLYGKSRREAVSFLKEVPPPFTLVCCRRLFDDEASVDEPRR

PICK1, Q9NRD5 = target: PICK1, Q9NRD5
PICK1, Q9NRD5, sequence (Q9NRD5 17-115): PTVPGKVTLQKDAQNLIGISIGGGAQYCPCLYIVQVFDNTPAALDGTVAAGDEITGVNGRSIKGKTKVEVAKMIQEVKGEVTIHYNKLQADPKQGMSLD

MAGI2_2, Q86UL8 = target: MAGI2_2, Q86UL8
MAGI2_2, Q86UL8, sequence (Q86UL8 410-522): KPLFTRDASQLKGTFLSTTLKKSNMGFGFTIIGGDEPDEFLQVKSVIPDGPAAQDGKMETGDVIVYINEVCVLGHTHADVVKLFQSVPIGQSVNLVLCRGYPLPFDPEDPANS

RADIL, Q96JH8 = target: T1, RADIL, Q96JH8
LAP2, Q96RT1 = target: LAP2, Q96RT1
LAP2, Q96RT1, sequence (Q96RT1 other isoform, or with tags, fused parts or gaps): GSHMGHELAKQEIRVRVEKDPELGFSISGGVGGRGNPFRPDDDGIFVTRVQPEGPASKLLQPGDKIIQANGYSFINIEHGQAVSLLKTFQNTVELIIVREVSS

TX1BP3, O14907 = target: T2, TX1BP3, O14907
HTRA4, P83105 = target: T3, HTRA4, P83105
MAGI2_5, Q86UL8 = target: MAGI2_5, Q86UL8
MAGI2_5, Q86UL8, sequence (Q86UL8 915-1017): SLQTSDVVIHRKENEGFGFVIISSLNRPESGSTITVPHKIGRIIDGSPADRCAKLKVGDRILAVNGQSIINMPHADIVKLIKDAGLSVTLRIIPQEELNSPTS

Inadl_5, Q8NI35 = target: Inadl_5, Q8NI35
Inadl_5, Q8NI35, sequence (Q8NI35 673-780): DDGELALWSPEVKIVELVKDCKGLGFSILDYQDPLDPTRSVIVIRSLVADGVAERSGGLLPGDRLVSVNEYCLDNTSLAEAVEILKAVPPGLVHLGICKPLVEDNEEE

SCRIB_3, Q14160 = target: SCRIB_3, Q14160
SCRIB_3, Q14160, sequence (Q14160 999-1103): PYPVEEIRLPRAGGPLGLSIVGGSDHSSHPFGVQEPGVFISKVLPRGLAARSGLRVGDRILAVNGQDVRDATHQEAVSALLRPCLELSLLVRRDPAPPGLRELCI

DLG4_3, P78352 = target: DLG4_3, P78352
DLG4_3, P78352, sequence (P78352 306-403): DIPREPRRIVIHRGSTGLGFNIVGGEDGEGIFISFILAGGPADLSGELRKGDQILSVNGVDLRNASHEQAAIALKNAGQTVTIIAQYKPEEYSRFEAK

MAST1, Q9Y2H9 = target: MAST1, Q9Y2H9
MAST1, Q9Y2H9, sequence (Q9Y2H9 962-1065): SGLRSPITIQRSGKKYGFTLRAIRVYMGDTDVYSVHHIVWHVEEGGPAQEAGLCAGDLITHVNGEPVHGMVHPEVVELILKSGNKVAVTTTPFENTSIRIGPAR

FRMPD2_3, Q68DX3 = target: FRMPD2_3, Q68DX3
FRMPD2_3, Q68DX3, sequence (Q68DX3 1073-1166): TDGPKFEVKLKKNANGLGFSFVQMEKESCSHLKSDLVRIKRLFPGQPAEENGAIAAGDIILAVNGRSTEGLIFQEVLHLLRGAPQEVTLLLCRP

HTRA2, O43464 = target: HTRA2, O43464
HTRA2, O43464, sequence (O43464 355-458): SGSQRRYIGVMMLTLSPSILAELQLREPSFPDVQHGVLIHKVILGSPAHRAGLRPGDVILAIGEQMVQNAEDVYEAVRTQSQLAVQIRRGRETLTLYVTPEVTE

PTPN13_1, Q12923 = target: T4, PTPN13_1, Q12923
PDZD2_2, O15018 = target: T5, PDZD2_2, O15018
DFNB31_2, Q9P202 = target: T6, DFNB31_2, Q9P202
Inadl_6, Q8NI35 = target: Inadl_6, Q8NI35
Inadl_6, Q8NI35, sequence (Q8NI35 1058-1167): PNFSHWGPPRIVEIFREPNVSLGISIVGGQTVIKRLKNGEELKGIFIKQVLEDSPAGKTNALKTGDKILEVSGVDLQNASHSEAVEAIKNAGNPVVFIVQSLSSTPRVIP

IL16_3, Q14005 = target: IL16_3, Q14005
IL16_3, Q14005, sequence (Q14005 1107-1207): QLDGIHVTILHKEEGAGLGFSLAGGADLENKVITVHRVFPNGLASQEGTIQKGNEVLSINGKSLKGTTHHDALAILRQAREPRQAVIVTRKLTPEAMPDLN

NOS1, P29475 = target: NOS1, P29475
NOS1, P29475, sequence (P29475 9-101): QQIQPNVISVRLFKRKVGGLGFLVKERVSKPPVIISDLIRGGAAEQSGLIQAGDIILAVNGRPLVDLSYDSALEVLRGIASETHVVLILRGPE

LIN7C, Q9NUP9 = target: T7, LIN7C, Q9NUP9
DLG3_3, Q92796 = target: T8, DLG3_3, Q92796
Inadl_1, Q8NI35 = target: Inadl_1, Q8NI35
Inadl_1, Q8NI35, sequence (Q8NI35 113-229): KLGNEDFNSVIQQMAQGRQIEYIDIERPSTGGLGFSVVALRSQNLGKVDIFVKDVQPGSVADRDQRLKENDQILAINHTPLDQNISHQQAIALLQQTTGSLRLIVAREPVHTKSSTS

MPP7, Q5T2T1 = target: T9, MPP7, Q5T2T1
DFNB31_3, Q9P202 = target: T10, DFNB31_3, Q9P202
DLG3_2, Q92796 = target: T11, DLG3_2, Q92796
GRIP2_4, Q9C0E4 = target: GRIP2_4, Q9C0E4
GRIP2_4, Q9C0E4, sequence (Q9C0E4 446-548): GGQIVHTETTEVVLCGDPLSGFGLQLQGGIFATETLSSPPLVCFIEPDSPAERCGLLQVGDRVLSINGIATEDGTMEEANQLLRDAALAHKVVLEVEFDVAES

Binder | pKd (Inadl_4, Q8NI35) | pKd (PICK1, Q9NRD5) | pKd (MAGI2_2, Q86UL8) | pKd (RADIL, Q96JH8) | pKd (LAP2, Q96RT1) | pKd (TX1BP3, O14907) | pKd (HTRA4, P83105) | pKd (MAGI2_5, Q86UL8) | pKd (Inadl_5, Q8NI35) | pKd (SCRIB_3, Q14160) | pKd (DLG4_3, P78352) | pKd (MAST1, Q9Y2H9) | pKd (FRMPD2_3, Q68DX3) | pKd (HTRA2, O43464) | pKd (PTPN13_1, Q12923) | pKd (PDZD2_2, O15018) | pKd (DFNB31_2, Q9P202) | pKd (Inadl_6, Q8NI35) | pKd (IL16_3, Q14005) | pKd (NOS1, P29475) | also measured
RQSILFSTEV [BCR, P11274] | below the threshold | below the threshold | 3.7 | 4.48 | 4.39 | 4.82 | 4.82 | 5.17 | 3.49 | 4.58 | 3.7 | 4.97 | below the threshold | below the threshold | below the threshold | 4.76 | below the threshold | 3.93 | below the threshold | below the threshold | pKd (LIN7C, Q9NUP9): 3.63; pKd (DLG3_3, Q92796): 3.86; pKd (Inadl_1, Q8NI35): 3.88; pKd (MPP7, Q5T2T1): below the threshold; pKd (DFNB31_3, Q9P202): below the threshold; pKd (DLG3_2, Q92796): 4.79; pKd (GRIP2_4, Q9C0E4): below the threshold
SRPTKGPTLL [PLEKHH2, Q8IVE3] | below the threshold | below the threshold | 4.2 | 3.94 | below the threshold | 4.01 | below the threshold | below the threshold | below the threshold | 4.41 | below the threshold | below the threshold | below the threshold | below the threshold | below the threshold | 3.87 | below the threshold | below the threshold | below the threshold | 4.35 | pKd (LIN7C, Q9NUP9): below the threshold; pKd (DLG3_3, Q92796): below the threshold; pKd (Inadl_1, Q8NI35): below the threshold; pKd (MPP7, Q5T2T1): below the threshold; pKd (DFNB31_3, Q9P202): 3.5; pKd (DLG3_2, Q92796): below the threshold; pKd (GRIP2_4, Q9C0E4): below the threshold
PLDSQQHTEV [FAT1, Q14517] | below the threshold | below the threshold | below the threshold | 3.89 | 3.61 | 3.85 | 4.26 | 4.54 | below the threshold | 4.2 | below the threshold | 4.43 | below the threshold | below the threshold | below the threshold | 4.79 | below the threshold | below the threshold | below the threshold | below the threshold | pKd (LIN7C, Q9NUP9): below the threshold; pKd (DLG3_3, Q92796): below the threshold; pKd (Inadl_1, Q8NI35): below the threshold; pKd (MPP7, Q5T2T1): below the threshold; pKd (DFNB31_3, Q9P202): below the threshold; pKd (DLG3_2, Q92796): 4.77; pKd (GRIP2_4, Q9C0E4): below the threshold
PELESKESVL [SLC1A4, P43007] | below the threshold | below the threshold | below the threshold | below the threshold | 3.55 | 4.1 | below the threshold | 4.02 | below the threshold | 4.7 | below the threshold | 4.71 | below the threshold | below the threshold | below the threshold | 4.16 | 3.5 | 3.57 | below the threshold | 3.65 | pKd (LIN7C, Q9NUP9): 4.28; pKd (DLG3_3, Q92796): below the threshold; pKd (Inadl_1, Q8NI35): below the threshold; pKd (MPP7, Q5T2T1): below the threshold; pKd (DFNB31_3, Q9P202): below the threshold; pKd (DLG3_2, Q92796): 3.79; pKd (GRIP2_4, Q9C0E4): below the threshold
